Positions count from the first letter of the chain named.

The chains are these.
T1: Fusion protein of LAG-3 extracellular region and mIgG2a Fc (human)
T1 construct: Limits of the signal peptide are marked only by lost underlining; also called LAG-3-mFc; LAG-3-mFc fusion protein
T1 chain: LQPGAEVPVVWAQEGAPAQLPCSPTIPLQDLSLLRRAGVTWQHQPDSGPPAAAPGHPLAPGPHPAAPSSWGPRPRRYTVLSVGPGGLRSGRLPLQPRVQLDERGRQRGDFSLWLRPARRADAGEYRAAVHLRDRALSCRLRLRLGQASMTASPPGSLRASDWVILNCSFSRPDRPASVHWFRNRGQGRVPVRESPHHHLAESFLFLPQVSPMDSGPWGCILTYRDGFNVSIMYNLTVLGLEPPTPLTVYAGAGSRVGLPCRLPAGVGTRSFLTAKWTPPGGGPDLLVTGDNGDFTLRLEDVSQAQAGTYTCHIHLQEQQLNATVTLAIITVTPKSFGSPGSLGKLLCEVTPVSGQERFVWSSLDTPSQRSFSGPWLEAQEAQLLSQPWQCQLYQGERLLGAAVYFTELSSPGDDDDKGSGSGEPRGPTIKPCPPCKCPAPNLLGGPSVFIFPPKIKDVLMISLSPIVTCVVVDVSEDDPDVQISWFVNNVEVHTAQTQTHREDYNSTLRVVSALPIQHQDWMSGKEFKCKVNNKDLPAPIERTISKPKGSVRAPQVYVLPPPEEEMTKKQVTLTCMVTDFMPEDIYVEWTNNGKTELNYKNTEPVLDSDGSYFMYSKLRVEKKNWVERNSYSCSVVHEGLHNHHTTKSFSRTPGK

T2: LAG-3 extracellular domain with a Flag tag (human, UniProt P18627 23-434)
T2 construct: also called LAG-3-Flag; LAG-3-Flag antigen
T2 sequence: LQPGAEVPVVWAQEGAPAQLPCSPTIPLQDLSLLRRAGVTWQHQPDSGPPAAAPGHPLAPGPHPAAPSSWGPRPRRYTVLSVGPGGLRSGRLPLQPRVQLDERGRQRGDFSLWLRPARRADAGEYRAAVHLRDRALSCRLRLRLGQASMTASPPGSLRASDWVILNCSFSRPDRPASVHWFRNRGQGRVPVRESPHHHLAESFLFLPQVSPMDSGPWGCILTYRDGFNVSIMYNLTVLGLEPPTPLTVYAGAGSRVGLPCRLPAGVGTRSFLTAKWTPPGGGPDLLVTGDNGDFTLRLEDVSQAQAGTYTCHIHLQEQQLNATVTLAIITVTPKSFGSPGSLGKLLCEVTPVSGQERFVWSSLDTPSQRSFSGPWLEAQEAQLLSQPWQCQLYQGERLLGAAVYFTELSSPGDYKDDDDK

B1: Hu303-004 (antibody, human IgG4 S228P, kappa, V domains shown)
VH: QVQLVQSGAEVKKPGASVKVSCKASGYTFTDYYMNWVRQAPGQRLEWMGVINPYNGDTAYNQKFKGRVTITRDTSASTAYMELSSLRSEDTAVYYCARDDGYYDYYFDVWGQGTTVTVSS
VL: DIQMTQSPSSLSASVGDRVTITCRASQDIGSRLNWYQQKPGKAPKLLIYATSTLDSGVPSRFSGSGSGTDFTLTISSLQPEDFATYYCLQLASSPPTFGGGTKVEIKR
notes: Humanized mAb303
B2: Hu303-022 (antibody, human IgG4 S228P, kappa, V domains shown)
VH: B1 VH with F29L, M48I, V68A, I70L, R72V, T74K, A97T
VL: B1 VL with Y36L, P44F, L46R, S60K, G66R
notes: Humanized mAb303
B3: Hu303-009 (antibody, human IgG4 S228P, kappa, V domains shown)
VH: B1 VH with R72V, T74K, A97T
VL: B1 VL
notes: Humanized mAb303
B4: Hu303-023 (antibody, human IgG4 S228P, kappa, V domains shown)
VH: B1 VH with F29L, M48I, V68A, I70L, R72V, T74K, A97T
VL: B1 VL with I21L, Y36L, K42G, P44F, L46R, S60K, G66R, T85D
notes: Humanized mAb303
B5: Hu303-005 (antibody, human IgG4 S228P, kappa, V domains shown)
VH: B1 VH
VL: B1 VL with L46R, G66R
notes: also called LAG-3 antibody Hu303-005; LAG3 antibody Hu303-005
B6: Hu303-006 (antibody, human IgG4 S228P, kappa, V domains shown)
VH: B1 VH
VL: B1 VL with L46R, S60K, G66R
notes: Humanized mAb303
B7: Hu303-014 (antibody, human IgG4 S228P, kappa, V domains shown)
VH: B1 VH with F29L, R72V, T74K, A97T
VL: B1 VL
notes: Humanized mAb303
B8: Hu303-021 (antibody, human IgG4 S228P, kappa, V domains shown)
VH: B1 VH with F29L, M48I, V68A, I70L, R72V, T74K, A97T
VL: B1 VL with L46R, S60K, G66R
notes: Humanized mAb303
B9: Hu303-016 (antibody, human IgG4 S228P, kappa, V domains shown)
VH: B1 VH with F29L, R72V, T74K, A97T
VL: B1 VL with L46R, S60K, G66R
notes: Humanized mAb303
B10: Hu229-014 (antibody, human IgG4 S228P, kappa, V domains shown)
VH: QVQLVQSGSELKKPGASVKVSCKASGYTFTTSGMSWVKQAPGQGLKWMGWINTYSGVPTYADDFKGRFVFSLDTSVSTAYLQISSLKAEDTATYYCARDNYDARDVYYYAMDYWGQGTTVTVSS
VL: DIQMTQSPSSLSASVGDRVTITCRASENIYSNLAWYQQKPGKAPKLLVYAATNLADGVPSRFSGSGSGTQYTLTISSLQPEDFATYYCQHFWITPWTFGGGTKVEIKR
notes: Humanized mAb229
B11: Hu229-011 (antibody, human IgG4 S228P, kappa, V domains shown)
VH: B10 VH with K38R, T93V
VL: B10 VL with A43S
notes: Humanized mAb229
B12: Hu229-010 (antibody, human IgG4 S228P, kappa, V domains shown)
VH: B10 VH with K38R, T93V
VL: B10 VL
notes: Humanized mAb229
B13: Hu229-016 (antibody, human IgG4 S228P, kappa, V domains shown)
VH: B10 VH with Y95F
VL: B10 VL with V48I, Q70D, Y71F
notes: Humanized mAb229
B14: Hu229-009 (antibody, human IgG4 S228P, kappa, V domains shown)
VH: B10 VH with K38R, T93V
VL: B10 VL with Q70D
notes: Humanized mAb229

T3 sequence (chain, as listed by the source limits assumed): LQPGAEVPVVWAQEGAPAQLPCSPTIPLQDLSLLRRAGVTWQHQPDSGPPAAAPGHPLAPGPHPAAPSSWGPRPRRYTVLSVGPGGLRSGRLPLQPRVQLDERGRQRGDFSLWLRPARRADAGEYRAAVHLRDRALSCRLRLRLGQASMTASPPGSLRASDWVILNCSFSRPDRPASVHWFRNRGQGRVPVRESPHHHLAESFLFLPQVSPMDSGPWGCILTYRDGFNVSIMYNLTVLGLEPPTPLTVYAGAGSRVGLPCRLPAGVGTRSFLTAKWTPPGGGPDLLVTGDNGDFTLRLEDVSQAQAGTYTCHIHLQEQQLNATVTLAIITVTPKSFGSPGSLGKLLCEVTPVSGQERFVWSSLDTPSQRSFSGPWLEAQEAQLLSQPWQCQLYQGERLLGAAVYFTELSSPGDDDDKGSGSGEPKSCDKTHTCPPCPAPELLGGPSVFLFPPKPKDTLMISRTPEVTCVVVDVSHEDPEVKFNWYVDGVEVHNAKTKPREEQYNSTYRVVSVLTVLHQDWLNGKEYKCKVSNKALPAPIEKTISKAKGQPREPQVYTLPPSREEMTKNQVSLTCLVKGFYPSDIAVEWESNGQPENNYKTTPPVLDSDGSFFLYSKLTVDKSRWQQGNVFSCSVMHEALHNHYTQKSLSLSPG

The target in the first experiment is T1, Fusion protein of LAG-3 extracellular …. The experiment can be described thus: ELISA, LAG-3-mFc captured by anti-mouse Fc on plate (which fusion: inferred). The text has this: The binding ability of anti-LAG-3 antibody to human LAG-3 protein was detected by ELISA assay. LAG-3 fusion protein with Fc or mFc tag was immobilized into 96-well microtiter plate by binding to anti-Fc or anti-mFc antibody coated on the microtiter plate, the strength of the signal after the addition of the antibody was used to determine the binding activity of the antibody to LAG-3, the specific experimental method is as follows.
The goat anti-human Fc antibody (Jackson Immuno Research, Cat No. 109-005-008) or goat anti-mouse Fc antibody (Sigma, Cat No. M3534-1ML) was diluted to a concentration of 2 μg/ml with PBS buffer at pH 7.4 (Sigma, Cat No. P4417-100TAB), and added to a 96-well plate at a volume of 50 μl/well and then, the plate was incubated in the incubator at 37° C. for 2 hours. After discarding the liquid, the plates were blocked with 200 μl/well of blocking solution containing 5% skim milk (Bright Dairy, skim milk powder) in PBS, and incubated in the incubator at 37° C. for 2.5 hours or overnight at 4° C. (16-18 hours). After blocking, the blocking solution was discarded and the plate was washed 5 times with PBST buffer (PH7.4 PBS containing 0.05% tween-20). LAG-3-Fc fusion protein (SEQ ID NO:3, produced in-house) or LAG-3-mFc fusion protein (SEQ ID NO: 4, produced in-house) was diluted with sample diluent (PH7.4 PBS containing 1% BSA) to 1 μg/ml and was added to each well, 50 μl/well. Then the plate was incubated in the incubator at 37° C. for 1 h or overnight at 4° C. After incubation, the reaction solution in the plate was discarded, and the plate was washed with PBST for 6 times, and then was added with 50 μl/well of various concentrations of antibodies to be tested (hybridoma purified antibody or humanized antibody) which have been diluted with sample diluent, and the plate was incubated at 37° C. for 1 h. The plates was washed 5 times with PBST after incubation, and was added with 100 μl/well of goat anti-mouse (Jackson Immuno Research, Cat No. 115-035-003) or goat anti-human secondary antibody (Jackson Immuno Research, Cat No. 109-035-003) labeled with HRP, diluted in sample diluent, and the plate was incubated at 37° C. for 1 h.
(In general: ELISA stands for enzyme-linked immunosorbent assay.)
Take B1: a half-maximal response (EC50) required 0.278 nM.
Same read-out and setting: next, B2: 0.145 nM.
Consider B3, for which a half-maximal effect (EC50) was put at 0.316 nM.
In the case of B4, the 50% effective concentration (EC50) (commonly the midpoint of the concentration-response curve) came out at 0.152 nM.
On to B5, for which the response was half-maximal at 0.309 nM (EC50).
B6 displayed an EC50 of 0.288 nM.
Same read-out and setting: with B7 the figure was 0.232 nM; with B8, 0.17 nM; with B9, 0.161 nM.
For B10, the EC50 was 0.153 nM.
Same read-out and setting: next, B11: 0.201 nM; B12: 0.174 nM.
Still for that read-out and setting: with B13 the figure was 0.154 nM; with B14, 0.152 nM.

A further experiment addresses T2, LAG-3 extracellular domain with a Flag …. Put plainly: SPR (Biacore), antibody captured on anti-human capture chip, LAG-3-Flag in flow. The text has this: 2. […] Then, the LAG-3-Flag antigen (produced in-house, SEQ ID NO:1) was flowed through the surface of the biochip, and the reaction signal was detected real time using a Biacore instrument to obtain the binding and dissociation curves, the value of affinity was obtained by fitting, see table 10 below. After each cycle of dissociation was finished in the experiment, the biochip was washed and regenerated with a regeneration solution provided in the human anti-capture kit.
With B1, the dissociation constant Kd – broadly, the constant that tells how readily two partners part at equilibrium – came to 1.06 nM.
For the molecule B3, the Kd turned out to be 0.943 nM. This Kd and that of the molecule before are within 1.5-fold of each other.
Same read-out and setting: next, B5: 0.0715 nM; B6: 0.0753 nM; B7: 0.491 nM.
Molecule B9 returned a dissociation constant (Kd) of 0.0748 nM.
With B10, binding was put at a Kd of 0.0374 nM.
B12 registered a dissociation constant Kd of 0.0382 nM.
Still for that read-out and setting: with B14 the figure was 0.0488 nM.

Another experiment has as its target T3, Fusion protein of LAG-3 extracellular region and hIgG1 Fc (human).
T3 construct: Limits of the signal peptide are marked only by lost underlining; also called LAG-3-Fc; LAG-3-Fc fusion protein
Put plainly: competition: biotin-LAG-3-Fc binding to fixed Daudi cells, antibody titrated. As to the method:
Daudi cells (human leukemia cells, purchased from the cell bank in Chinese Academy of Sciences) were seeded in 96-well plate with a density of 3×10⁵/well. After centrifugation at 1000 rpm, the supernatant was discarded and then the plate was fixed with 4% PFA for 30 min at room temperature. The plate was washed 4 times with PBS after discarding the fixed solution, and the plate was blocked with 200 μl/well of blocking solution containing 5% skim milk (Bright Dairy, skim milk powder) diluted in PBS, and incubated at 37° C. for 2.5 hours. After blocking, the blocking solution was discarded and the plate was washed 5 times with PBST buffer (pH7.4 PBS containing 0.05% tween-20), added with 50 μl/well mixture of biotin-labeled (Biotin labeling kit, Dojindo Chemical, Cat No. LK03) LAG-3-Fc fusion protein (produced in-house, SEQ ID NO: 3) and gradient concentrations of the antibody to be tested, wherein the biotin-labeled LAG-3-Fc fusion protein has been diluted with sample diluent (PH7.4 PBS containing 1% BSA) at a final concentration of 0.4 μg/ml, and pre-mixed for an hour, then the plate was incubated at 37° C. for 1 h. The reaction solution was discarded and the plate was washed 5 times with PBST after incubation, 50 μl/well of HRP-labeled Streptavidin (Sigma, Cat No. 52438) diluted with sample diluent was added, and the plate was incubated at 37° C. for 1 h. After washing the plate 5 times with PBST, 50 μl/well of TMB chromogenic substrate (KPL, Cat No. 52-00-03) was added to each well, and incubated at room temperature for 5-15 min, the reaction was stopped by the addition of 50 μl 1M H₂SO₄ to each well. The OD value at a wavelength of 450 nm was read on NOVOStar microplate reader, and then the activity of the LAG-3 antibody in blocking the binding of the antigen to Daudi cells was calculated.
With B1, the IC50 (commonly the midpoint of a concentration-inhibition curve) was 0.502 nM.
The same measure, in the same setting: next, B2: 0.36 nM; B3: 0.417 nM; B4: 0.369 nM.
Still for that read-out and setting: with B5 the figure was 0.622 nM.
With B6, the IC50 is 0.821 nM.
B7 came in with an IC50 of 0.467 nM.
Molecule B8 displayed a half-maximal inhibitory concentration (IC50) of 0.456 nM.
On to B9, for which the IC50 was 0.395 nM.
B10 registered a 50% inhibitory concentration (IC50) of 0.718 nM.
Regarding B11, the IC50 amounted to 0.566 nM. The IC50 values of the last two molecules are within 1.5-fold of each other.
For B12, the IC50 turned out to be 0.453 nM.
Same read-out and setting: next, B13: 0.875 nM; B14: 0.559 nM.

The values above are taken from patent US20220031842A1 (JIANGSU HENGRUI MEDICINE, published 2022).
